From US20100035825

Tests used:
Ac-KE^217VD-CHO = target: T1, Ac-KE^217VD-CHO
T1 chain: KEVD

Ac-KKPD^105-CHO = target: T2, Ac-KKPD^105-CHO
T2 chain: KKPD

B1: purified recombinant procaspase 8 (human, Alexis Biochemicals) (protein)
chain: SESQTLDKVYQMKSKPRGYCLIINNHNFAKAREKVPKLHSIRDRNGTHLDAGALTTTFEELHFEIKPHDDCTVEQIYEILKIYQLMDHSNMDCFICCILSHGDKGIIYGTDGQEAPIYELTSQFTGLKCPSLAGKPKVFFIQACQGDNYQKGIPVETDSEEQPYLEMDLSSPQTRYIPDEADFLLGMATVNNCVSYRNPAEGTWYIQSLCQSLRERCPRGDDILTILTEVNYEVSNKDDKKNMGKQMPQPTFTLRKKLVFPSD
Q: Which results are given for B1?
A: in vitro self-activation of caspase 8 (colorimetric substrate, tetrapeptides at 200 µM) (Ac-KE^217VD-CHO): inhibited; in vitro self-activation of caspase 8 (colorimetric substrate, tetrapeptides at 200 µM) (Ac-KKPD^105-CHO): inhibited
